Measured values as given in patent US20230212549A1 (3B PHARMACEUTICALS, published 2023).
Several values for one entry are separate records, joined by “and”; a condition that tells them apart may be missing. Equal values may be shown once. Numbered stars: 1 amine (or outer) side, 2 acyl side, 3 side chain; on linkers, the order of the positions; unused ones are H or OH. Bridge positions count the residues as written; N and C are the ends. Square brackets hold non-standard residues; d marks the D form. * marks the point of attachment. mXylylene = c1cc(C[*:1])cc(C[*:2])c1; Hexanoyl = CCCCCC(=O)*; βAla = NCCC(=O)O

Columns and labels:
[1] = biological target: T1, fibroblast activation protein (FAP) on FAP-expressing human WI-38 fibroblasts (human, UniProt Q12884 1-760); test: competitive FACS, WI-38 cells, vs Cy5 tracer m3; A = pIC50 >8.0
T1 construct: also called human FAP

[2] = biological target: Recombinant human FAP (R&D systems, #3715-SE) (human, UniProt Q12884 26-760); test: cell-based or functional assay

Binder | pIC50 Category (FACS) [1] [pIC50] | pIC50 Category (Activity) [2]
Ac-MCPPTEFCDHFRD-NH2 (linker 2-8 via mXylylene; SMILES CSCC[C@H](NC(C)=O)C(=O)N[C@H]1CSCc2cccc(c2)CSC[C@@H](C(=O)N[C@@H](CC(=O)O)C(=O)N[C@@H](Cc2c[nH]cn2)C(=O)N[C@@H](Cc2ccccc2)C(=O)N[C@@H](CCCNC(=N)N)C(=O)N[C@@H](CC(=O)O)C(N)=O)NC(=O)[C@H](Cc2ccccc2)NC(=O)[C@H](CCC(=O)O)NC(=O)[C@H]([C@@H](C)O)NC(=O)[C@@H]2CCCN2C(=O)[C@@H]2CCCN2C1=O, also called 3BP-2975) [Ac-Met-[Cys(3MeBn)-Pro-Pro-Thr-Glu-Phe-Cys]-Asp-His-Phe-Arg-Asp-NH2] | > 8 | > 8 pIC50
Ac-MCGPTEFCDHFRD-NH2 (linker 2-8 via mXylylene; SMILES CSCC[C@H](NC(C)=O)C(=O)N[C@H]1CSCc2cccc(c2)CSC[C@@H](C(=O)N[C@@H](CC(=O)O)C(=O)N[C@@H](Cc2c[nH]cn2)C(=O)N[C@@H](Cc2ccccc2)C(=O)N[C@@H](CCCNC(=N)N)C(=O)N[C@@H](CC(=O)O)C(N)=O)NC(=O)[C@H](Cc2ccccc2)NC(=O)[C@H](CCC(=O)O)NC(=O)[C@H]([C@@H](C)O)NC(=O)[C@@H]2CCCN2C(=O)CNC1=O, also called 3BP-3214) [Ac-Met-[Cys(3MeBn)-Gly-Pro-Thr-Glu-Phe-Cys]-Asp-His-Phe-Arg-Asp-NH2] | > 8 | > 8 pIC50
Ac-MCPPTEFCDAFRD-NH2 (linker 2-8 via mXylylene; SMILES CSCC[C@H](NC(C)=O)C(=O)N[C@H]1CSCc2cccc(c2)CSC[C@@H](C(=O)N[C@@H](CC(=O)O)C(=O)N[C@@H](C)C(=O)N[C@@H](Cc2ccccc2)C(=O)N[C@@H](CCCNC(=N)N)C(=O)N[C@@H](CC(=O)O)C(N)=O)NC(=O)[C@H](Cc2ccccc2)NC(=O)[C@H](CCC(=O)O)NC(=O)[C@H]([C@@H](C)O)NC(=O)[C@@H]2CCCN2C(=O)[C@@H]2CCCN2C1=O, also called 3BP-3195) [Ac-Met-[Cys(3MeBn)-Pro-Pro-Thr-Glu-Phe-Cys]-Asp-Ala-Phe-Arg-Asp-NH2] | > 8 | 7.1 pIC50 and 8 pIC50

The remaining lines, values ahead:

pIC50 Category (FACS) [1] [pIC50] | pIC50 Category (Activity) [2] | Binder
> 8 | > 8 pIC50 | Hexanoyl-CPPTEFCDHFRD-NH2 (linker 1-7 via mXylylene; SMILES CCCCCC(=O)N[C@H]1CSCc2cccc(c2)CSC[C@@H](C(=O)N[C@@H](CC(=O)O)C(=O)N[C@@H](Cc2c[nH]cn2)C(=O)N[C@@H](Cc2ccccc2)C(=O)N[C@@H](CCCNC(=N)N)C(=O)N[C@@H](CC(=O)O)C(N)=O)NC(=O)[C@H](Cc2ccccc2)NC(=O)[C@H](CCC(=O)O)NC(=O)[C@H]([C@@H](C)O)NC(=O)[C@@H]2CCCN2C(=O)[C@@H]2CCCN2C1=O) [Hex-[Cys(3MeBn)-Pro-Pro-Thr-Glu-Phe-Cys]-Asp-His-Phe-Arg-Asp-NH2]
> 8 | > 8 pIC50 | Ac-MCPPTEFCDHARD-NH2 (linker 2-8 via mXylylene; SMILES CSCC[C@H](NC(C)=O)C(=O)N[C@H]1CSCc2cccc(c2)CSC[C@@H](C(=O)N[C@@H](CC(=O)O)C(=O)N[C@@H](Cc2c[nH]cn2)C(=O)N[C@@H](C)C(=O)N[C@@H](CCCNC(=N)N)C(=O)N[C@@H](CC(=O)O)C(N)=O)NC(=O)[C@H](Cc2ccccc2)NC(=O)[C@H](CCC(=O)O)NC(=O)[C@H]([C@@H](C)O)NC(=O)[C@@H]2CCCN2C(=O)[C@@H]2CCCN2C1=O, also called 3BP-3196) [Ac-Met-[Cys(3MeBn)-Pro-Pro-Thr-Glu-Phe-Cys]-Asp-His-Ala-Arg-Asp-NH2]
> 8 | 7.1 pIC50 and 8 pIC50 | Hexanoyl-CPPTEFC[βAla]-OH (linker 1-7 via mXylylene; SMILES CCCCCC(=O)N[C@H]1CSCc2cccc(c2)CSC[C@@H](C(=O)NCCC(=O)O)NC(=O)[C@H](Cc2ccccc2)NC(=O)[C@H](CCC(=O)O)NC(=O)[C@H]([C@@H](C)O)NC(=O)[C@@H]2CCCN2C(=O)[C@@H]2CCCN2C1=O, also called 3BP-3371) [Hex-[Cys(3MeBn)-Pro-Pro-Thr-Glu-Phe-Cys]-Bal-OH]
